From the supplement of paper PMC11865577

Legend:
Experiment in all cases: pull-down binding Z-score (relative to library population); higher = stronger binding
TO-N3 (biotin conjugate) = settings: RNA library: Library-2
Procedure, shortened: (§1)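 Streptavidin beads bearing 100 pmol of a biotin-conjugated small molecule were incubated for 60 min at 25 °C with 1 μg of heat-folded, Cy5- or Cy3-end-labelled RNA library in phosphate/NaCl/KCl buffer. Hot SDS eluted the RNA that stayed bound after three washes, and this RNA was hybridised for 20 h at 55.5 °C to a DNA barcode microarray. Binding was expressed as a Z-score against the library mean and standard deviation, after subtraction of a beads-only signal and trimmed averaging of barcoded replicate probes.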

[1] = system: G-clamp-N3 (biotin conjugate); settings: RNA library: Library-1 (pre-miRNA loops + repeats)
Procedure, shortened: as §1

[2] = system: TO-3-N3-2 (biotin conjugate); settings: RNA library: Library-2
Procedure, shortened: as §1

[3] = system: TO-3-N3 (biotin conjugate); settings: RNA library: Library-2
Procedure, shortened: as §1

[4] = system: TO-N3-2 (biotin conjugate); settings: RNA library: Library-2
Procedure, shortened: as §1

Sequence | pull-down binding Z-score (TO-N3 (biotin conjugate)) | pull-down binding Z-score [1] | pull-down binding Z-score [2] | pull-down binding Z-score [3] | pull-down binding Z-score [4]
UGUCAUUGAAAGUAAUAGCA [hsa-mir-548h-3] | -0.141 | -1.07 | -0.0124 | -0.165 | -0.319
UGUCGUAGAAAGUAAUGGCA [hsa-mir-548l] | -0.189 | 0.662 | -0.0955 | 0.0469 | -0.387
UGUCUUGUAGCCAGGAUAUUGUUUUAAAGAA [hsa-mir-4668] | -0.338 | -0.739 | 0.00983 | -0.404 | -0.355
UGUCUUGUGUCUGUAAGUAU [hsa-mir-1275] | -0.413 | -0.561 | -0.189 | -0.619 | -0.00915
UGUCUUUUUUUUUUUCUGAGACA [hsa-mir-1273c] | -1.21 | -0.128 | 0.127 | -0.718 | -1.36
UGUGACCUGGAGCAGCUCAGGAGGGCUUCCUGGGUGAGGUGGCAGGUUACA [hsa-mir-4311] | 1.08 | 2.01 | 0.183 | 0.566 | 1.69
UGUGAGAGCUACUAAGUCUUAUA [hsa-mir-8076] | -0.162 | 0.772 | -0.223 | 0.0311 | -0.596
UGUGCCCCGUACCGGACAGG [hsa-mir-7160] | 0.611 | -1.03 | -0.0308 | -0.0418 | 1.21
UGUGCCUGCCUUCGAAGUGCACGGCAGG [hsa-mir-4297] | 0.519 | -0.529 | 0.00697 | 0.105 | 0.753
UGUGCCUUGCCUUUCCUUUGGCACA [hsa-mir-4438] | -0.0545 | 0.155 | -0.183 | -0.0269 | -0.0304
UGUGGCAGUGGCAGAGGUCGCUACA [hsa-mir-6856] | 0.704 | 1.12 | 0.0517 | 0.436 | 1.13
UGUGGCCUGGGGGUUGAGGACCCCUGCUCUA [hsa-mir-645] | 1.74 | 1.32 | 0.303 | 0.874 | 2.75
UGUGGCCUUUUUGCCUUUUCUAAAGGCCACAU [hsa-mir-1250] | -0.489 | 0.00873 | -0.241 | -0.234 | -0.551
UGUGGUCACCCACUCU [hsa-mir-4316] | 0.0225 | -0.668 | -0.0165 | -0.237 | 0.297
UGUGGUGGGUGGUGGCCUGCGGUGAGCAGGGCCCUCA [hsa-mir-1228] | 2.36 | 0.921 | 1.08 | 1.6 | 2.1
UGUGGUUGGGGCCAUGGCGGGUGGGCAGCCCAGCCUCUGAGCCUUCCU [hsa-mir-1238] | 2.76 | -0.179 | 1.74 | 2.04 | 2.37
UGUGUGCUGAGAAAAUUCACACA [hsa-mir-5580] | -0.125 | -0.421 | 0.149 | 0.00215 | -0.274
UGUGUGUACUCACAGCCCCUCACACA [hsa-mir-942] | -0.432 | -0.624 | -0.262 | -0.301 | -0.11
UGUGUGUCGCUCCGGGUCCACG [hsa-mir-574] | 0.516 | 0.438 | -0.0762 | 0.0307 | 1.25
